Measurements published in PMC5021521, “Coordinated recruitment of Spir actin nucleators and myosin V motors to Rab11 vesicle membranes” (eLife, 2016).
Substitutions are numbered along the chain they refer to. Numbers in names are those of the source. One block for each molecule: values may come before it.

Assays:
MyoVa-GTD = target: T1, MyoVa-GTD (Homo sapiens, UniProt Q9Y4I1); experiment: Surface plasmon resonance, Rab11a captured; assay type: binding
T1 construct: aa 1461 - 1853 (BamHI / XhoI); His6 (6xHis) with rTEV site (N, cleaved yes); made in house; host or cells: Escherichia coli BL21(DE3) or BL21-CodonPlus-RILP
T1 sequence (Q9Y4I1 1463-1855): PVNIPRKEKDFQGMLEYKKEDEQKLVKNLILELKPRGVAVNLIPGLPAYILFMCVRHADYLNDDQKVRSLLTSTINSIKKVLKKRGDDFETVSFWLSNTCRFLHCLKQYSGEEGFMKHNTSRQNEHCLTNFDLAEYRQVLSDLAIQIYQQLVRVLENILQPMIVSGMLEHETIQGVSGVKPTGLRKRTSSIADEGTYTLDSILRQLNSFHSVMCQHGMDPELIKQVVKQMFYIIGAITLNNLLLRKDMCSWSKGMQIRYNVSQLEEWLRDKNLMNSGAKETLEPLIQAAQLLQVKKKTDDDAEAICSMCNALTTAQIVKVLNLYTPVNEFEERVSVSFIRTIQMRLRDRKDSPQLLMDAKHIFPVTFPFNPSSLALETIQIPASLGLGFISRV
Description: The assays were carried out at 25°C in buffer (50 mM Hepes pH 7.5, 100 mM NaCl, 2 mM MgCl2, 1 mM TCEP). 200–250 resonance units (RU; 1RU ≈ 1 pg × mm^−2) of Rab11a-Q70L(GTP) or Rab11-wt(GDP) were captured through their His6-tag on the surface of a NTA sensorchip using a Biacore 2000 instrument (GE Healthcare Life Sciences). MyoVa-GTD or MyoVb-GTD (10 nM–5 µM) were then injected over the tethered Rabs for one minute at a flow rate of […]. The surface was regenerated with a 2-min 0.3 M EDTA incubation and a 1-min 0.1% SDS wash. The real-time interaction profiles were double referenced using the Scrubber 2.0 software (BioLogic Software, Campbell, Australia), both the signals from a reference surface (with a non-relevant protein captured on NTA) and from blank experiments using buffer instead of MyoV-GTD were subtracted. The MyoV-GTD concentration-dependence of the steady-state SPR signals was then analyzed to determine the dissociation equilibrium constants (Kd) of the different complexes using the numerical integration algorithm software Biaevaluation 4.1. Each experiment (10 point 2-fold dilution concentration series each) was repeated in triplicate, yielding mean Kd values and standard errors (SEM).

AcGFP-MyoVa-GTD = experiment: FLIM-FRET at vesicle membranes in HeLa cells; assay type: cell-based, Mus musculus; conditions: AcGFP-MyoVa-GTD donor
Description: Fluorescence lifetimes were imaged with a commercial FLIM upgrade kit (PicoQuant, Berlin, Germany) attached to a confocal microscope LSM 880 (Zeiss, Jena, Germany) using a 440 nm pulsed laser diode at 20 MHz repetition rate. The fluorescence was detected using the Big.2-unit (Zeiss) fed into the TimeHarp 260 photon counting board (PicoQuant). Time series of FLIM images were recorded until bright pixels accumulated at least 1000 photon events. Before pixel wise fitting (Symphotime, 64-bit, version 2, PicoQuant), a region of interest was defined manually by setting a threshold for selecting pixels of high intensity (100–300 photon events per pixel). Fitting employed an exponential two-component model to 20 ns of the decay without binning. Lifetime images contained the color coded, intensity weighted average in each pixel.
For an improved automated selection of vesicular structures in cells, we followed a previously established semi-automated approach ([Austen et al., 2015]). Briefly, confocal imaging was done using a Leica TCS SP5 X confocal microscope equipped with a pulsed white light laser (WLL, 80 MHz repetition rate; NKT Photonics, Birkerod, Denmark), a FLIM X16 TCSPC detector (LaVision Biotec, Bielefeld, Germany) and a 63x water objective (HCX PL APO CS, NA = 1.2). A band-pass filter 514/30 (AHF Analysentechnik, Tübingen, Germany) was used to block acceptor emitted photons. Data analysis includes manual selection of the cytoplasmic regions followed by a threshold algorithm, segmenting high intensity regions based on spatial signal changes at varying levels. The custom-written MATLAB program ([Austen et al., 2015]) calculates the average FRET efficiency E according to E = 1−τDA/τD
with τD as the mean donor lifetime τDA as mean donor lifetime in presence of an acceptor fluorophore. E represents the entire ROI of a single cell. Here, fitting employed an exponential one-component fit to 10 ns of decay; the first 0.5 ns were omitted due to the instrumental response. […]

[1] = system: Spir-2:MyoVa:Rab11 tripartite complex; experiment: Analytical gel filtration; assay type: binding, Homo sapiens; conditions: Superdex 200 10/30; 50 mM Tris pH 8.0, 150 mM NaCl, 2 mM MgCl2, 2 mM TCEP
Description: Complex formations were analyzed by analytical gel-filtration using Superdex 200 10/30 Increase column (GE Healthcare Life Sciences) and UV light absorbance at 280 nm and 260 nm and Visible light absorbance at 587 nm at flow rate of 0.75 ml/min in 50 mM Tris pH 8.0, 150 mM NaCl, 2 mM MgCl2, 2 mM TCEP buffer. Fractions of 500 µl were collected and analyzed by SDS-PAGE.
A 100 µl sample of His6-Rab11a-1-173-Q70L at 6 mg/ml, or of MyoVa-GTD at 5 mg/ml or of His6-mCherry-Spir-2-linker at 6 mg/ml were centrifuged at 10,000 x g for 10 min and injected into the column to monitor reference elution profiles of the individual proteins. The proteins were mixed pairwise to the same final concentrations and incubated 30 min at 4°C in a total volume of 100 µl. The two-component complexes (His6-mCherry-Spir-2-linker:MyoVa-GTD and MyoVa-GTD:His6-Rab11a-1-173-Q70L) were confirmed by the elution peak shifts and SDS-PAGE analysis. […] The tripartite His6-mCherry-Spir-2-linker:MyoVa-GTD:His6-Rab11a-1-173-Q70L complex was analyzed at the same concentration of the individual components and confirmed by SDS-PAGE.

HeLa cells = experiment: Subcellular localization by fluorescence microscopy; assay type: cell-based
Description: HeLa cells were seeded on microscope cover glasses and transfected with Myc-epitope-tagged Spir-2 proteins and fluorescently-tagged MyoV and Rab11 proteins as described above. Cells were fixed with paraformaldehyde (3.7% in 1x PBS) for 20 min at 4°C and subsequently permeabilized using 0.2% Triton X-100 (in 1x PBS) for 3.5 min, room temperature. Cells were incubated with anti-c-Myc antibody (9E10, mouse monoclonal, 2 µg/ml, Santa Cruz Biotechnology; RRID: AB_627268) for 1 hr at room temperature and conjugated anti-mouse secondary antibodies (Cy5; from donkey, 3.25 µg/ml, Dianova (RRID: AB_2340820) and TRITC; from donkey, 3.125 µg/ml, Dianova (RRID: AB_2340767)) for 1 hr at room temperature avoiding exposure to light. Finally, cells were mounted on microscope slides with Mowiol and analyzed with a Leica AF6000LX fluorescence microscope, equipped with a Leica HCX PL APO 63x/1.3 GLYC objective and a Leica DFC350 FX digital camera (1392 × 1040 pixels, 6.45 × 6.45 µm pixel size). 3D stacks were recorded and processed with the Leica deconvolution software module. In case of the MyoVa autoregulation/activation experiments, we quantified the MyoVa expression levels. […] In order to clearly distinguish between vesicular and cytoplasmic MyoVa localization, we imaged either high or low expressing cells and determined the sum of pixel gray values per cell as a measure for the MyoVa expression levels. Based on that, we only used cells for the autoregulation analysis having a sum of pixel gray values less than 20 × 10^6 for the expression of GFP-MyoVa-D-FL. Images were recorded using the Leica LASX software and further processed with Adobe Photoshop and subsequently assembled with Adobe Illustrator.

- Kd (MyoVa-GTD; MyoVa-GTD 10 nM–5 µM over captured Rab11a-Q70L(GTP) or Rab11-wt(GDP), 50 mM Hepes pH 7.5, 100 mM NaCl, 2 mM MgCl2, 1 mM TCEP, 25°C, steady state, mean ± SEM, N = 3, read-out: dissociation equilibrium constant (Kd)): 2620 ± 490 nM
- affinity in words (MyoVa-GTD; Rab11-GDP for MyoVa): relatively high affinity
B1: Rab11GDP: Rab11-wt(GDP) captured through its His6-tag (protein)
chain: MGTRDDEYDYLFKVVLIGDSGVGKSNLLSRFTRNEFNLESKSTIGVEFATRSIQVDGKTIKAQIWDTAGQERYRAITSAYYRGAVGALLVYDIAKHLTYENVERWLKELRDHADSNIVIMLVGNKSDLRHLRAVPTDEARAFAEKNGLSFIETSALDSTNVEAAFQTILTEIYRIVS
modifications: left off: His6, N-terminal, kept
notes: Rab11-wt(GDP) captured through its His6-tag

B2: mStrawberry-Spir-2-SB-FYVE: mStrawberry-hs-Spir2-SB-FYVE aa 438 - 714 (protein)
chain: DRSFSEHDLAQLRSEVASGLQSATHPPGGTEPPRPRAGSAHVWRPGSRDQGTCPASVSDPSHPLLSNRGSSGDRPEASMTPDAKHLWLEFSHPVESLALTVEEVMDVRRVLVKAEMEKFLQNKELFSSLKKGKICCCCRAKFPLFSWPPSCLFCKRAVCTSCSIKMKMPSKKFGHIPVYTLGFESPQRVSAAKTAPIQRRDIFQSLQGPQWQSVEEAFPHIYSHGCVLKDVCSECTSFVADVVRSSRKSVDVLNTTPRRSRQTQSLYIPNTRTLDFK
modifications: left off: mStrawberry, end not stated, kept
- fluorescence lifetime / FRET result in words (AcGFP-MyoVa-GTD): did not alter the lifetime

B3: mStrawberry-Spir-2-GTBM-SB-FYVE: mStrawberry-hs-Spir2-GTBM-SB-FYVE aa 361 - 714 (protein)
chain: GEGWAARGFGSLPCILNACSGDAKSTSCINLSVTDAGGSAQRPRPRVLLKAPTLAEMEEMNTSEEEESPCGEVTLKRDRSFSEHDLAQLRSEVASGLQSATHPPGGTEPPRPRAGSAHVWRPGSRDQGTCPASVSDPSHPLLSNRGSSGDRPEASMTPDAKHLWLEFSHPVESLALTVEEVMDVRRVLVKAEMEKFLQNKELFSSLKKGKICCCCRAKFPLFSWPPSCLFCKRAVCTSCSIKMKMPSKKFGHIPVYTLGFESPQRVSAAKTAPIQRRDIFQSLQGPQWQSVEEAFPHIYSHGCVLKDVCSECTSFVADVVRSSRKSVDVLNTTPRRSRQTQSLYIPNTRTLDFK
modifications: left off: mStrawberry, end not stated, kept
- fluorescence lifetime / FRET result in words (AcGFP-MyoVa-GTD): able to reduce the fluorescence lifetime

B4: Spir-2-GTBM-SB-FYVE-LALA: mStrawberry-hs-Spir2-GTBM-SB-FYVE-L408A,L409A (protein)
chain: B3 chain with L48A, L49A
modifications: left off: mStrawberry, end not stated, kept
notes: mStrawberry-hs-Spir2-GTBM-SB-FYVE-L408A,L409A
- fluorescence lifetime / FRET result in words (AcGFP-MyoVa-GTD): did not alter the lifetime

B5: Rab11a-Q70L: hs-Rab11a-Q70L aa 1 - 173, GTP-locked mutant (protein)
chain: MGTRDDEYDYLFKVVLIGDSGVGKSNLLSRFTRNEFNLESKSTIGVEFATRSIQVDGKTIKAQIWDTAGLERYRAITSAYYRGAVGALLVYDIAKHLTYENVERWLKELRDHADSNIVIMLVGNKSDLRHLRAVPTDEARAFAEKNGLSFIETSALDSTNVEAAFQTILTEIY
modifications: left off: His6, N-terminal, kept
notes: hs-Rab11a-Q70L aa 1 - 173, GTP-locked mutant
- co-elution in gel filtration in words [1]: co-elution of all three proteins

B6: Myc-Spir-2-KIND-WH2-GTBM: Myc-hs-Spir2-KIND-WH2-GTBM aa 2 - 437 (protein, UniProt Q8WWL2 2-437, looked up, fragment)
chain: ARAGSCGGAAAGAGRPEPWELSLEEVLKAYEQPLNEEQAWAVCFQGCRGLRGSPGRRLRDTGDLLLRGDGSVGAREPEAAEPATMVVPLASSEAQTVQSLGFAIYRALDWGLDESEERELSPQLERLIDLMANNDSEDSGCGAADEGYGGPEEEEEAEGVPRSVRTFAQAMRLCAARLTDPRGAQAHYQAVCRALFVETLELRAFLARVREAKEMLQKLREDEPHLETPRAELDSLGHTDWARLWVQLMRELRRGVKLKKVQEQEFNPLPTEFQLTPFEMLMQDIRARNYKLRKVMVDGDIPPRVKKDAHELILDFIRSRPPLKQVSERRLRPLPPKQRSLHEKILEEIKQERRLRPVRGEGWAARGFGSLPCILNACSGDAKSTSCINLSVTDAGGSAQRPRPRVLLKAPTLAEMEEMNTSEEEESPCGEVTLKR
modifications: Myc tag
- subcellular localization in words (HeLa cells; co-expression of eGFP-MyoVa-FL and N-terminal Spir-2 fragment): both proteins localize to vesicle membranes
- subcellular localization in words (HeLa cells; single expression): even cytoplasmic and nuclear localization
